± gives the uncertainty stated by the source.
Test: self-splicing fitness, log relative to wild type (ln ratio); higher = more splicing; Tetrahymena group I intron in knt gene, E. coli kanamycin selection, DiMSum; sequences stand for … in CUCUCU…GGAGGGAAAAGUUAUCAGGCAUGCACCUGGUAGCUAGUCUUUAAACCAAUAGAUUGCAUCGGUUUAAAAGGCAAGACCGUCAAAUUGCGGGAAAGGGGUCAACAGCCGUUCAGUACCAAGUCUCAGGGGAAACUUUGAGAUGGCCUUGCAAAGGGUAUGGUAAUAAGCUGACGGACAUGGUCCUAACCACGCAGCCAAGUCCUAAGUCAACAGAUCUUCUGUUGAUAUGGAUGCAGUUCACAGACUAAAUGUCGGUCGGGGAAGAUGUAUUCUUCUCAUAAGAUAUAGUCGGACCUCUCCUUAAUGGGAGCUAGCGGAUGAAGUGAUGCAACACUGGAGCCGCUGGGAACUAAUUUGUAUGCGAAAGUAUAUUGAUUAGUUUUGGAGUACUCGUGGUCG
In short: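 DiMSum derived fitness as the error-weighted combination of fold changes across replicates, kanamycin versus no kanamycin, normalised to wild type. E. coli BL21(DE3) held the library, which randomised all eight P1ex-region intron nucleotides within the knt kanamycin-resistance gene on pET-22b(+). Six replicate transformations grew overnight at 37°C or 30°C on LB agar with or without 25 μg/mL kanamycin, also containing 100 μg/mL carbenicillin, 50 μM IPTG and 0.2% rhamnose, and pooled colonies were amplicon-sequenced on an Illumina HiSeq 2500.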

Sequence | self-splicing fitness (ln) (30 °C) | self-splicing fitness (ln) (37 °C)
AAGGAGCAAUAUUACGGUAU | -3.5 ± 0.26 | -2.06 ± 0.31
AAGGAGCAAUAUUACGUCAU | -3.84 ± 0.2 | -2.94 ± 0.24
AAGGAGCAAUAUUACGUCGC | – | -1.49 ± 0.35
AAGGAGCAAUAUUACGUGAG | -3.51 ± 0.25 | -2.5 ± 0.21
AAGGAGCAAUAUUACGUGGA | -2.36 ± 0.2 | -1.75 ± 0.2
AAGGAGCAAUAUUACGUUAU | -2.99 ± 0.2 | -1.59 ± 0.22
AAGGAGCAAUAUUACGUUCG | -1.78 ± 0.11 | -0.665 ± 0.2
AAGGAGCAAUAUUACGUUGG | -4.4 ± 0.27 | -2.5 ± 0.25
AAGUAGCAAUAUUACGAACC | -1.4 ± 0.36 | -1.57 ± 0.25
AAGUAGCAAUAUUACGACCC | 0.421 ± 0.3 | 0.212 ± 0.29
AAGUAGCAAUAUUACGAGAU | -2.66 ± 0.16 | -1.34 ± 0.15
AAGUAGCAAUAUUACGAGCA | -1.52 ± 0.15 | -0.816 ± 0.14
AAGUAGCAAUAUUACGAUGU | -1.23 ± 0.1 | -0.476 ± 0.12
AAGUAGCAAUAUUACGCGCA | -0.196 ± 0.11 | 0.0802 ± 0.13
AAGUAGCAAUAUUACGGACC | – | -0.466 ± 0.37
AAGUAGCAAUAUUACGGAGU | -2.54 ± 0.2 | -1.9 ± 0.22
AAGUAGCAAUAUUACGGCAA | 0.196 ± 0.18 | -0.154 ± 0.22
AAGUAGCAAUAUUACGGCAC | -1.17 ± 0.17 | -0.552 ± 0.17
AAGUAGCAAUAUUACGGCGU | -0.422 ± 0.091 | 0.27 ± 0.11
AAGUAGCAAUAUUACGGGAU | -3.14 ± 0.15 | -1.61 ± 0.14
AAGUAGCAAUAUUACGGGCU | -2.02 ± 0.12 | -1.44 ± 0.13
AAGUAGCAAUAUUACGGUGA | -1.03 ± 0.11 | -0.771 ± 0.14
AAGUAGCAAUAUUACGGUUA | -0.841 ± 0.087 | -0.334 ± 0.085
AAGUAGCAAUAUUACGUAAU | -2.31 ± 0.1 | 0.0619 ± 0.096
AAGUAGCAAUAUUACGUCAA | -2.25 ± 0.1 | -0.583 ± 0.083

Sequence | self-splicing fitness (ln) (30 °C) | self-splicing fitness (ln) (37 °C)
AAGUAGCAAUAUUACGUCAG | -3.38 ± 0.19 | -2.43 ± 0.18
AAGUAGCAAUAUUACGUCAU | -2.29 ± 0.13 | -0.997 ± 0.12
AAGUAGCAAUAUUACGUCCG | -1.53 ± 0.14 | -1.93 ± 0.14
AAGUAGCAAUAUUACGUCGG | -2.97 ± 0.25 | -2.09 ± 0.26
AAGUAGCAAUAUUACGUCUU | -0.577 ± 0.12 | -0.48 ± 0.11
AAGUAGCAAUAUUACGUUAA | -2.47 ± 0.23 | -2.33 ± 0.18
AAUAAGCAAUAUUACGACAU | -0.117 ± 0.012 | 0.0514 ± 0.032
AAUAAGCAAUAUUACGAGAC | -3.14 ± 0.47 | -1.18 ± 0.23
AAUAAGCAAUAUUACGAGGU | -4.58 ± 0.27 | -2.11 ± 0.18
AAUAAGCAAUAUUACGAGUU | -1.32 ± 0.087 | -1.1 ± 0.1
AAUAAGCAAUAUUACGAUCA | -0.507 ± 0.12 | 0.576 ± 0.13
AAUAAGCAAUAUUACGAUGA | -0.45 ± 0.1 | -0.0904 ± 0.11
AAUAAGCAAUAUUACGAUGG | -2.53 ± 0.14 | -0.861 ± 0.12
AAUAAGCAAUAUUACGCAAG | -1.77 ± 0.1 | -1.59 ± 0.14
AAUAAGCAAUAUUACGCCUC | -2.43 ± 0.35 | -1.19 ± 0.31
AAUAAGCAAUAUUACGCCUU | -0.502 ± 0.12 | -0.0645 ± 0.18
AAUAAGCAAUAUUACGCGAC | -1.61 ± 0.14 | -1.46 ± 0.14
AAUAAGCAAUAUUACGCGAU | -2.22 ± 0.23 | -2.98 ± 0.35
AAUAAGCAAUAUUACGCGCC | -0.204 ± 0.15 | -0.572 ± 0.16
AAUAAGCAAUAUUACGCGCG | -0.258 ± 0.11 | 0.0567 ± 0.15
AAUAAGCAAUAUUACGCGUC | -1.45 ± 0.13 | -1.15 ± 0.16
AAUAAGCAAUAUUACGCUCU | -0.422 ± 0.079 | -0.115 ± 0.09
AAUAAGCAAUAUUACGGAUU | -1.34 ± 0.096 | -0.185 ± 0.12
AAUAAGCAAUAUUACGGCAC | -1.44 ± 0.11 | -0.634 ± 0.14
AAUAAGCAAUAUUACGGCCG | -0.879 ± 0.12 | 0.196 ± 0.2

Sequence | self-splicing fitness (ln) (30 °C) | self-splicing fitness (ln) (37 °C)
AAUAAGCAAUAUUACGGGAA | -2.54 ± 0.28 | -0.437 ± 0.2
AAUAAGCAAUAUUACGGGCA | -0.69 ± 0.1 | -0.292 ± 0.11
AAUAAGCAAUAUUACGGGGC | -3.29 ± 0.26 | -2.91 ± 0.37
AAUAAGCAAUAUUACGGUUA | -0.197 ± 0.08 | -0.369 ± 0.077
AAUAAGCAAUAUUACGUCAC | -3.19 ± 0.17 | -3.17 ± 0.21
AAUAAGCAAUAUUACGUCAU | -1.39 ± 0.062 | -0.608 ± 0.092
AAUAAGCAAUAUUACGUGAC | -2.18 ± 0.2 | -2.76 ± 0.35
AAUAAGCAAUAUUACGUUUC | -4.09 ± 0.28 | -2.46 ± 0.24
AAUCAGCAAUAUUACGAAAG | -1.78 ± 0.12 | -0.272 ± 0.13
AAUCAGCAAUAUUACGAGCC | -2.39 ± 0.16 | -0.744 ± 0.19
AAUCAGCAAUAUUACGAGCG | -0.582 ± 0.063 | -0.11 ± 0.079
AAUCAGCAAUAUUACGAGCU | -0.908 ± 0.093 | -0.226 ± 0.093
AAUCAGCAAUAUUACGAGGG | -1.68 ± 0.088 | -0.681 ± 0.096
AAUCAGCAAUAUUACGAUAU | 0.477 ± 0.082 | 0.538 ± 0.1
AAUCAGCAAUAUUACGAUGG | -1.49 ± 0.1 | -0.853 ± 0.12
AAUCAGCAAUAUUACGCACG | -1.02 ± 0.17 | -1.1 ± 0.16
AAUCAGCAAUAUUACGCCAC | -3.91 ± 0.21 | -3.78 ± 0.39
AAUCAGCAAUAUUACGCCGG | -1.15 ± 0.086 | -0.932 ± 0.099
AAUCAGCAAUAUUACGCGAC | -1.17 ± 0.085 | -1.96 ± 0.15
AAUCAGCAAUAUUACGCGGC | -1.53 ± 0.26 | 0.179 ± 0.16
AAUCAGCAAUAUUACGCUGC | -3.58 ± 0.26 | -2.36 ± 0.19
AAUCAGCAAUAUUACGGACC | 0.313 ± 0.13 | -0.451 ± 0.13
AAUCAGCAAUAUUACGGCCA | -0.515 ± 0.11 | -0.146 ± 0.12
AAUCAGCAAUAUUACGGCGC | -0.736 ± 0.096 | 0.0282 ± 0.11
AAUCAGCAAUAUUACGGGAA | -1.37 ± 0.097 | 0.137 ± 0.078

Reference: the supplement of paper PMC7877785
